Measurements reported in patent publication US5804555A, “Antioxidant” (Morinaga Milk Industry Co., Ltd., priority 1992, dated 1998).

Assay: Test 1: antioxidant effect on linoleic acid, peroxides by ferric thiocyanate method
Format: biochemical
Settings: 0.2% added to linoleic acid, 60° C.
Procedure: A sample was prepared by adding dl-α tocopherol (manufactured by Wako Jun-yaku Kogyo Company), bovine lactoferrin (manufactured by Sigma Company), hydrolysate of lactoferrin (prepared by the same method as in the Example 2), or peptide (prepared by the same method as in the Example 3) to a final concentration of 0.2% (weight percentage; same applies hereafter except for the degree of decomposition) to commercially available linoleic acid (manufactured by Wako Jun-Yaku Kogyo Company) containing no additive. Hereafter, the thus prepared samples are individually referred to as […].
Antioxidant effect of the individual samples was tested by the method of Mitsuda et al.(Eiyo to Shokuryo, Vol. 19, p. 210, 1966) described below.
The above-mentioned samples were added to a mixed solution containing 10 ml of ethanol, 10 ml of 0.1M phosphate buffer solution (pH: 7.0), and 5 ml of deionized water so as to achieve a final concentration of linoleic acid of […](mol/l). This solution was placed in a vial bottle having a capacity of 50 ml, and the closely plugged bottle was held in an incubator at 60° C. The total volume was always adjusted to 25 ml by reducing the above-mentioned ionized water, depending upon the quantity of added sample. At prescribed time intervals, 0.1 ml was sampled from this vial bottle to measure the quantity of peroxides by the following ferric thiocyanate method.
To the sample solution in an amount of 0.1 ml, 4.7 ml of 75% ethanol, 0.1 ml of 30% ammonium rhodanide, and 0.1 ml of 3.5% hydrochloric acid solution of 2×10^-2 M ferrous chloride were added, and absorbance at 500 nm was measured upon the lapse of just three minutes.

B1: Sample 3: Test 1 Sample 3: bovine lactoferrin (Sigma Company) added to linoleic acid (protein)
chain: APRKNVRWCTISQPEWFKCRRWQWRMKKLGAPSITCVRRAFALECIRAIAEKKADAVTLDGGMVFEAGRDPYKLRPVAAEIYGTKESPQTHYYAVAVVKKGSNFQLDQLQGRKSCHTGLGRSAGWIIPMGILRPYLSWTESLEPLQGAVAKFFSASCVPCIDRQAYPNLCQLCKGEGENQCACSSREPYFGYSGAFKCLQDGAGDVAFVKETTVFENLPEKADRDQYELLCLNNSRAPVDAFKECHLAQVPSHAVVARSVDGKEDLIWKLLSKAQEKFGKNKSRSFQLFGSPPGQRDLLFKDSALGFLRIPSKVDSALYLGSRYLTTLKNLRETAEEVKARYTRVVWCAVGPEEQKKCQQWSQQSGQNVTCATASTTDDCIVLVLKGEADALNLDGGYIYTAGKCGLVPVLAENRKSSKHSSLDCVLRPTEGYLAVAVVKKANEGLTWNSLKDKKSCHTAVDRTAGWNIPMGLIVNQTGSCAFDEFFSQSCAPGADPKSRLCALCAGDDQGLDKCVPNSKEKYYGYTGAFRCLAEDVGDVAFVKNDTVWENTNGESTADWAKNLNREDFRLLCLDGTRKPVTEAQSCHLAVAPNHAVVSRSDRAAHVKQVLLHQQALFGKNGKNCPDKFCLFKSETKNLLFNDNTECLAKLGGRPTYEEYLGTEYVTAIANLKKCSTSPLLEACAFLTR
Degree of peroxidation (absorbance at 500 nm) (period of preservation 0 days): 0 | Degree of peroxidation (absorbance at 500 nm) (period of preservation 3 days): 0.23 | Degree of peroxidation (absorbance at 500 nm) (period of preservation 6 days): 0.30 | Degree of peroxidation (absorbance at 500 nm) (period of preservation 10 days): 0.31 | Degree of peroxidation (absorbance at 500 nm) (period of preservation 13 days): 0.32
